Reference: patent publication US6566083B1, “Method of detecting biologically active substances” (Novo Nordisk A/S, priority 1995, dated 2003)

Legend:
[1] = target: wild-type green fluorescent protein (GFP) derived from the jellyfish Aequorea victoria (Aequorea victoria) [GFP: P42212]; test: cell-based or functional assay
[2] = target: T1, catalytic subunit of the cAMP dependent protein kinase (Bos taurus, UniProt P00517); test: In vitro GFP phosphorylation assay; type: biochemical; settings: 0.5 μg GFP, 10 casein units kinase, 0.2 mM ATP, 5 minutes at 37° C., excitation 395 nm (FIG. 3)
T1 construct: purchased Promega
Method: For in vitro phosphorylation of GFP, 0.5 μg wild-type GFP (purified as described above) in 40 mM Tris, pH 7.4, 20 mM MgOAc and 0.2 mM ATP (all from Sigma, St. Louis, Mo., USA) was incubated for 1-60 minutes at 37° C. with 0-20 casein units of the catalytic subunit of the cAMP dependent protein kinase (Promega, Madison, Wis. USA) and 0-200 μM cAMP dependent protein kinase inhibitor. Emission (excitation wavelength 395 nm or 470 nm) and excitation (emission wavelength 508 nm) spectra were acquired for all samples using the LS50B Luminescence Spectrometer and the FL data Manager software package (Perkin Elmer). The spectra were subsequently compared by using the Graph Builder software package (Perkin Elmer).
The control (w/o PKA) was incubated 5 minutes at 37° C. without the catalytic subunit of the cAMP dependent protein kinase. The excitation wavelength was 395 nm. RFI in the figure means relative fluorescence intensity.

fluorescence intensity of wild-type GFP (emission spectra, excitation 395 nm) after in vitro phosphorylation [1] [fold] | increase of fluorescence intensity when incubated with the catalytic subunit of the cAMP dependent protein kinase [2] | Substance
2 | – | catalytic subunit of the cAMP dependent protein kinase (Promega) (enzyme)
– | approximately two-fold | wild-type GFP: wild-type green fluorescent protein derived from the jellyfish Aequorea victoria, SEQ ID NO: 32, purified from E. coli
